# ± gives the half width of the 95% confidence interval.
# Test: folding stability dG unfold from trypsin proteolysis; higher = more stable
# Outline: (§1)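 Unfolding free energy was derived, per protease or combined, against a sequence-predicted unfolded-state K50 and a shared folded-state K50, starting from K50 inferred by Bayesian fitting of sequencing counts. Digestion with trypsin and chymotrypsin was carried out on designed mini-proteins under 80 residues without cysteine in a PA-tagged cDNA display construct. Only designs with AlphaFold2 dimer inter-PAE above 15 were kept.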
row,Sequence,folding stability dG unfold
1,SAMIMIRVEYPNGKTWPIMIPLRTPDGDPTKEEVEEIAERIADEIAEEHGGDNVKIEIQVMPMPPEENPSAG [r14_378_TrROS],2.23 ± 0.081 kcal/mol
2,SAMTPETERKLLEAPKTGDVEAVREAAEEIEKEYPGKGLVVTVTVSPLSDGTWEVEVTVELPPNLPELASAG [r14_690_JUSTAS],0.702 ± 0.12 kcal/mol
3,SAGGPTLKVKIYLPEEGKVIEFTFEAKKDEAEKIAKELEKLFPGYKLEGVKIFETPDSIELLAVASPESAGG [r13_196_TrMRF],3.26 ± 0.11 kcal/mol
4,SAGGSAGGSAKHRVDDIQPQRHKNPDGEKPVRVRFPDNGQEERIPADNLDDIDVSDGMEVEPSAGGSAGGSA [r18_288_TrROS],-1.8 ± 0.45 kcal/mol
5,SALTLEELEKRYPELPSELLEKIKEEAEKVPKDRTLTFLLTAPDGRRVRITVTKPDTVTVTVLPPGVPEASA [r9_1024_JUSTAS],4.13 ± 0.3 kcal/mol
6,SAGGSDNKPFRIEPTGVDSVEANPDGMVEIEWRFRLPNGYVLTWRETINPKNGKPSIEPTLVPPGESAGGSA [r2_321_TrROS],0.816 ± 0.079 kcal/mol
7,SAGGSAGGSAMVTIAFPDGTVVEIPASLSEEEVEAEAERLAKERAAGVRPVDVTVESIEPPGSAGGSAGGSA [r18_213_JUSTAS],0.356 ± 0.035 kcal/mol
8,SAGGGVPLTRSEPLGEIEFPEENIKLKISRYTSPLDGTEYIEITTDYGEGTSTSIYPPGEIEEILGGSAGGS [r16_603_JUSTAS],0.666 ± 0.12 kcal/mol
9,SMKTITIPADTLSPEEIEALLKELGFDPEKIKISTEGDKLVVTVPDMIVFLTPPPPVPTVPPTNPERLAALS [r1_57_JUSTAS],0.643 ± 0.036 kcal/mol
10,SAGMKEIKIKDAKIEVKKKKDGKKVKRITLKDGKEIEIKEDGSIIIRNKKTGKYIKLPKNMTIEELLKKSAG [r5_348_TrROS_Hall],0.925 ± 0.09 kcal/mol
11,SAGFKIKIEPDKNMPPGQKPMTEEELKKIAKSIAKQMEQDPGNPGKEVKIEIPFYFPDGYWYRIEIEKSAGG [r19_132_TrROS],0.259 ± 0.19 kcal/mol
12,SAGGSAGGSASTSEKIDYPNPPITVTRLPNGVVLVTYSDSNTTTVIPESVLATLPPTVPLFSAGGSAGGSAG [r3_256_JUSTAS],1.58 ± 0.048 kcal/mol
13,SAGGSAGGSAMKTFTKTFSSPEEAERAAEEIKEKLEKEGKKVKITFEKPETDTYIVTITIESAGGSAGGSAG [r3_211_JUSTAS],3.44 ± 0.16 kcal/mol
14,SAGGSAGGSAGEMYKIKIFNKETGKELTLVFESEEEAKEALKKKFPNAKIEIEKISKEELSAGGSAGGSAGG [r11_978_TrROS_Hall],2.38 ± 0.13 kcal/mol
15,SMVQGTVLPPNGQRLTFEFDPAGTAQERAEQVRALLEALLPPDLKIEVERVEPDRPISADEPGTVLARADSA [r9_178_TrMRF],-0.914 ± 0.56 kcal/mol
16,SAGGSAGGPIVIKVKSLEEAKELVEKLAKELTPENVKVEIKEVFEPENSYYVVIEIKTASPEEESAGGSAGG [r6_72_TrMRF],2.85 ± 0.14 kcal/mol
17,SAGGSAGGSAVPPDRPFTLPVLTLVRDPETGELYLARAEVTFLAPDPVITAARLEVFPPDADFSAGGSAGGS [r12_868_TrMRF],0.761 ± 0.058 kcal/mol
18,SAGGSAGGKPVTVEVDIVVKPGDTIEFPPGAKVEIVEKKEVEVNGKKYQVFKIKVTLPPGEEALSAGGSAGG [r6_454_TrROS_Hall],2.31 ± 0.12 kcal/mol
19,SAGGSAGGSAPLPPLTPEQVKALVEELKKKGYKVKKVTVVEVNGELYVFVEVDGKLYRIKVSAGGSAGGSAG [r3_395_TrROS_Hall],3.47 ± 0.069 kcal/mol
20,SMLPLLPPRRLLIEVVFPLPEDATPEQLELAERAAEALADVLEALGFKDVRVLVEPTDPGDVLILAEVEASA [r9_865_TrMRF],1.49 ± 0.023 kcal/mol
21,SAGGKTVTIKAKSLEDALKAIEALPSVDKVTITVEVNGKTVTITLTVKPPPPVKYELDKNGKLVKKEKSAGG [r13_183_TrROS_Hall],0.794 ± 0.05 kcal/mol

row,Sequence,folding stability dG unfold
1,SAGGSAGGSAGGKKIIKVPLKNAEKIKKELKKKYKIKKVKIEKNKDGSKYIYIEVEKPKSAGGSAGGSAGGS [r10_1219_TrROS_Hall],0.939 ± 0.071 kcal/mol
2,SAGGSAGGSAGGKKPKVKVIKLTLTVTKLTEKDGKLTLEKKTITLTAVIDPETGKIHLLSAGGSAGGSAGGS [r10_533_TrROS_Hall],3.2 ± 0.14 kcal/mol
3,MKETVTVDITVVVEDENGKKHLVRVKVTVEKLPDGTYRVTIEVENLETGKTETIEIEVKGAEFKPGDVIEIS [r1_14_TrROS_Hall],3.21 ± 0.15 kcal/mol
4,SAGGSAGGSAGGSIEINIMFELPNGLIFRISTTIEPNPDGNLKLDIDIEVIPIKPGQPISAGGSAGGSAGGS [r10_241_TrROS],3.11 ± 0.14 kcal/mol
5,SAGGSAGGIRINPENGQIYFPLENGKAKSVPFKPGQEREIPNGWRITIKPDPPGPWEIEVKPLDSAGGSAGG [r6_296_TrROS],-0.509 ± 0.42 kcal/mol
6,SAGGSAGGSASIEVAAPPDATVTITTEITRKLPAGAKLPNGVVASADETLKETVTTTITVLGSAGGSAGGSA [r18_450_JUSTAS],-0.27 ± 0.29 kcal/mol
7,SAGGNWTIEVEIEENPDGPYRITIRYRAPNGEEHKVTMWFDPDNGTFPIKLPGPLPPDQIEDIEIWPSAGGS [r16_95_TrROS],3.41 ± 0.36 kcal/mol
8,SAGGSAGGGEPFVIRVELEWPNNNSIPFNIPFPPGDAITAAKNIASPLRKMGRPIKIKITDIYPSAGGSAGG [r6_721_TrROS],0.545 ± 0.13 kcal/mol
9,SAGPIIIRVKYPDGRQIDINPENPWQIQIWDPGGKKETYPFDSNEDAKDKVVDWLGEEHGWPIKDVEIVSAG [r5_119_TrROS],0.373 ± 0.043 kcal/mol
10,SKKPKIKIEIEIVEITEVKYDKKTNKITVKVKVKIKIEVEVNGKKKKIEIEIPKNMTLEEILKKLKELLKSA [r9_656_TrROS_Hall],2.15 ± 0.44 kcal/mol
11,SAGGSAGGSAGGKMYLIKVKVDGEEKLIKVKSLEEAKKLLEEKGYKIESVEIFEVEEEEESAGGSAGGSAGG [r7_726_TrROS_Hall],4.14 ± 0.23 kcal/mol
12,SAGGMSALRIVAENLPEDARVVLPDGRVFPPGVELELPLEADLDVVVALDEDGRVHHVERVPLDRPLLSAGG [r13_441_TrMRF],-0.352 ± 0.16 kcal/mol
13,SAGGSAGGSATIRIPWDKIKDALEEHDMTVTNIEPNPGGNPWVEIEVNGTPEQREKIQEALKSAGGSAGGSA [r18_175_TrROS],0.369 ± 0.045 kcal/mol
14,SAGKVEIVVTYPDGSKAVIDSDNPLVFTITDPDGNSSTISGTGFDEALLKIVELLKEKTGKPVEKVEIKSAG [r5_119_TrMRF],0.377 ± 0.098 kcal/mol
15,SAGGSAGGSAGGAMAPDEPVERVEVTYKTGRLTFPGKPVLKKEKVVLKFTLTVTDPALLSAGGSAGGSAGGS [r10_745_JUSTAS],-0.234 ± 0.33 kcal/mol
16,SAGGSAGGSAGMTPVEITDPNSDKTYTYDPEKKTLTKYYPGEGKTETFPLTSEEEAKKLLSAGGSAGGSAGG [r11_936_JUSTAS],-0.536 ± 0.13 kcal/mol
17,SAGGSAMTAEEVEEKVREAFAALGVEAEVEVRESPEGGLEVLVVTGEDADLEEVKAALEELFGTDISAGGSA [r15_807_TrMRF],2.51 ± 0.12 kcal/mol
18,SDEGYKVEINPMIHRTDGKVTIMFMIQIKPGLDDLKIKIKLRLPDGKPMKVDYQRNPDNGFIMVSATMPPSA [r9_159_TrROS],2.91 ± 0.1 kcal/mol
19,SAGGSAGGSDPPVVTVEVKEETLPNGEKIYIVTVTREDGTTKTLKFPASTSEEEIKEKVEKLLSAGGSAGGS [r12_1019_JUSTAS],3.64 ± 0.3 kcal/mol
20,SSSLDYVFKDIDPSSPNKLTLSEIKPVPESDKVVNKIVFPTKTILVTFDSAEDAEAHIGLLLKLFGSPPESA [r9_258_TrMRF],0.66 ± 0.044 kcal/mol
21,SAGMSFTVTTVGSPGPTTPRVVIEPPDRVVVISRLPDGSYEVRYYDPSPPVELERRRLAPEEAIAELLSAGG [r19_188_JUSTAS],0.385 ± 0.095 kcal/mol

# Test: folding stability dG unfold from chymotrypsin proteolysis; higher = more stable
# Outline: as §1
row,Sequence,folding stability dG unfold
1,SAMIMIRVEYPNGKTWPIMIPLRTPDGDPTKEEVEEIAERIADEIAEEHGGDNVKIEIQVMPMPPEENPSAG [r14_378_TrROS],1.5 ± 0.12 kcal/mol
2,SAMTPETERKLLEAPKTGDVEAVREAAEEIEKEYPGKGLVVTVTVSPLSDGTWEVEVTVELPPNLPELASAG [r14_690_JUSTAS],0.27 ± 0.097 kcal/mol
3,SAGGPTLKVKIYLPEEGKVIEFTFEAKKDEAEKIAKELEKLFPGYKLEGVKIFETPDSIELLAVASPESAGG [r13_196_TrMRF],3.65 ± 0.075 kcal/mol
4,SAGGSAGGSAKHRVDDIQPQRHKNPDGEKPVRVRFPDNGQEERIPADNLDDIDVSDGMEVEPSAGGSAGGSA [r18_288_TrROS],-0.631 ± 0.044 kcal/mol
5,SALTLEELEKRYPELPSELLEKIKEEAEKVPKDRTLTFLLTAPDGRRVRITVTKPDTVTVTVLPPGVPEASA [r9_1024_JUSTAS],4.12 ± 0.094 kcal/mol
6,SAGGSDNKPFRIEPTGVDSVEANPDGMVEIEWRFRLPNGYVLTWRETINPKNGKPSIEPTLVPPGESAGGSA [r2_321_TrROS],0.722 ± 0.18 kcal/mol
7,SAGGSAGGSAMVTIAFPDGTVVEIPASLSEEEVEAEAERLAKERAAGVRPVDVTVESIEPPGSAGGSAGGSA [r18_213_JUSTAS],1.43 ± 0.062 kcal/mol
8,SAGGGVPLTRSEPLGEIEFPEENIKLKISRYTSPLDGTEYIEITTDYGEGTSTSIYPPGEIEEILGGSAGGS [r16_603_JUSTAS],1.39 ± 0.19 kcal/mol
9,SMKTITIPADTLSPEEIEALLKELGFDPEKIKISTEGDKLVVTVPDMIVFLTPPPPVPTVPPTNPERLAALS [r1_57_JUSTAS],-0.141 ± 0.36 kcal/mol
10,SAGMKEIKIKDAKIEVKKKKDGKKVKRITLKDGKEIEIKEDGSIIIRNKKTGKYIKLPKNMTIEELLKKSAG [r5_348_TrROS_Hall],1.74 ± 0.029 kcal/mol
11,SAGFKIKIEPDKNMPPGQKPMTEEELKKIAKSIAKQMEQDPGNPGKEVKIEIPFYFPDGYWYRIEIEKSAGG [r19_132_TrROS],0.647 ± 0.29 kcal/mol
12,SAGGSAGGSASTSEKIDYPNPPITVTRLPNGVVLVTYSDSNTTTVIPESVLATLPPTVPLFSAGGSAGGSAG [r3_256_JUSTAS],1.12 ± 0.013 kcal/mol
13,SAGGSAGGSAMKTFTKTFSSPEEAERAAEEIKEKLEKEGKKVKITFEKPETDTYIVTITIESAGGSAGGSAG [r3_211_JUSTAS],3.93 ± 0.12 kcal/mol
14,SAGGSAGGSAGEMYKIKIFNKETGKELTLVFESEEEAKEALKKKFPNAKIEIEKISKEELSAGGSAGGSAGG [r11_978_TrROS_Hall],3.1 ± 0.13 kcal/mol
15,SMVQGTVLPPNGQRLTFEFDPAGTAQERAEQVRALLEALLPPDLKIEVERVEPDRPISADEPGTVLARADSA [r9_178_TrMRF],0.0574 ± 0.19 kcal/mol
16,SAGGSAGGPIVIKVKSLEEAKELVEKLAKELTPENVKVEIKEVFEPENSYYVVIEIKTASPEEESAGGSAGG [r6_72_TrMRF],2.51 ± 0.097 kcal/mol
17,SAGGSAGGSAVPPDRPFTLPVLTLVRDPETGELYLARAEVTFLAPDPVITAARLEVFPPDADFSAGGSAGGS [r12_868_TrMRF],1.69 ± 0.085 kcal/mol
18,SAGGSAGGKPVTVEVDIVVKPGDTIEFPPGAKVEIVEKKEVEVNGKKYQVFKIKVTLPPGEEALSAGGSAGG [r6_454_TrROS_Hall],2.854 ± 0.026 kcal/mol
19,SAGGSAGGSAPLPPLTPEQVKALVEELKKKGYKVKKVTVVEVNGELYVFVEVDGKLYRIKVSAGGSAGGSAG [r3_395_TrROS_Hall],4.47 ± 0.12 kcal/mol
20,SMLPLLPPRRLLIEVVFPLPEDATPEQLELAERAAEALADVLEALGFKDVRVLVEPTDPGDVLILAEVEASA [r9_865_TrMRF],1.97 ± 0.034 kcal/mol
21,SAGGKTVTIKAKSLEDALKAIEALPSVDKVTITVEVNGKTVTITLTVKPPPPVKYELDKNGKLVKKEKSAGG [r13_183_TrROS_Hall],1.56 ± 0.086 kcal/mol
